Experimental data: the DeepSol protein solubility set

Test: soluble on expression in E. coli; label from the status in PepcDB or PDB records
In the case of “MGSDKIHHHHHHMKTSKKWIAHFEANALHQRINWDLFPAITEAETASVLSSLQAWQLGETSDGAHLIHASTLYASHIGDLDYIDAVKLFIKEEQKHGNNLGRYLDVIDKPRIKKDWGDSLFRKIRYFNTNMEIWTLAVITVESAAQVFYQCLKNATECTLLRQICTDILIDEAYHIDFQTERMTILFNKKSVLSRCLSRIMYPVFFFSTSLLVWSAHKKLFKAGGIDFKKYMNKMKYKYFKTLHRIALVCSRKSTLIHSALH”, the “soluble on expression in E. coli” value is reported as “not soluble”. With “MGSDKIHHHHHHMKTSQLIRKIQEKIDEAMSRLNDLESMEIKTEEYLDTFLALVNNTYKKAEIYNTLVDQWNLLMKQGDEIKRSIEEFKPEYVHHLTEMMKYDGINLLYLRENEHLRAIGIDEIAARTFQEFLKEEELAERSEAFNQAVRKTREQIQQYHMFHYYVSLTDNELKVDENYRLAGNYYRYSIDFFDKNFPYKSIGISRKLENVPELLEKFFRLREKLEGEDPEGDRVRKTLERLYSLSSFDTVEEFNAIIDEWTDLYEAYKQEDPFKTNVLSYSYINKDGRTVQKTYPTYDFLRWLSQRNRKNQEYILNNYLRRITDDPTREGYEIRDPSVVLENRLVEATIKALPNYKSGIMSEIDSLKKMSRMKRKRKEEEIQKKIMTDPFAAVGAKVPEEIKYWLLRRLDVTHPDLYEEWNRITSELQAYLEEVVKQ” the “soluble on expression in E. coli” value was “not soluble”. With “MGSDKIHHHHHHMKVAYVIGGLPFGGVESWLLDLARHVSKTSDFECRVFNVSGTGVKMPEYISSGVDVVCAGNSLDSIATHRIDTVLRLRSQLVEYAPDIIHTLHFSGDYCGRLASIGLGVPVVTHLRNIKCERKLRRRLANKLLSFFTDMYLSVSRAVADMVADDHNIAKRPSRVIYNAVDPQKLAVEPHDLTAMYGVSGRIVVGVGRYVGQKNFDLLLRALRLVLDEGHDISVVLVGEGGERPHLERLIRELSLEGHAVLTGYRQDVPRFLRASYALAMPSDFEGLPITHLEAMFCGLPAIVSRHVPSLEIAREASLVCKRSPESIAQCIIRLLEDEKLHSTLSNTGSRIASEHTMDLYIKTLKGIYDELASRGKEI” the “soluble on expression in E. coli” value was “not soluble”. With “MGSDKIHHHHHHMKVFVIGAGLMGRGIAIAIASKHEVVLQDVSEKALEAAREQIPEELLSKIEFTTTLEKVKDCDIVMEAVFEDLNTKVEVLREVERLTNAPLCSNTSVISVDDIAERLDSPSRFLGVHWMNPPHVMPLVEIVISRFTDSKTVAFVEGFLRELGKEVVVCKGQSLVNRFNAAVLSEASRMIEEGVRAEDVDRVWKHHLGLLYTLFGPLGNLDYIGLDVAYYASLYLYKRFGDEKFKPPEWLQEKIKKGEVGVKAGKGIYEYGPKAYEERVERLKKLLRFLGLE” the “soluble on expression in E. coli” value was “soluble”. In the case of “MGSDKIHHHHHHMKVLLYLEAENYLRKSGIGRAIKHQAKALSLVGQHFTTNPRETYDLVHLNTYGLKSWLLMIKAQKAGKKVIMHGHSTEEDFRNSFIFSNLLSPWFKKYLCHFYNKADAIITPTLYSKSLIESYGVKSPIFAVSNGIDLEQYGADPKKEAAFRRYFDIKEGEKVVMGAGLFFLRKGIDDFVKVAQAMPDVRFIWFGETNKWVIPAQVRQMVNGNHPKNLIFPGYIKGDVYEGAMTGADAFFFPSREETEGIVVLEALASRQHLVLRDIPVYYGWVDQSSAELATDIPGFIEALKKVFSGASNKVEAGYKVAQSRRLETVGHALVDVYKKVMEL”, the “soluble on expression in E. coli” value is reported as “not soluble”. In the case of “MGSDKIHHHHHHMKVLNKPLEGVKVIDLTYFVAGPGTSKILADWGADVIKVEPSFGDPGRKTGATMTMPIDDYNNPFYSTYNSNKRGLSINLKSETGIEIMDKLLSEANVFVSSYRTGALKRLGLDYESLSKKHPHLIWGQINGFGDFGPAKDNAGFDTVAFWARSGAMLDIAEKDTSPINPPIAFGDATTSCSLSGGICAALYQQAKTGKGQKVMASLFGQAIWNASSLLASTQFSDEYPKTRKNAISPVINSYRCKDGKWIFLSILEHERYFEALCRLFGREDLIKEEKFASSVESKKNATELINILDGEFAKFTQNEMVEKLTAADIAHEKIQHVNDVVTDEQAIANNYIYEHTSKNGNKTMLASTPVKFGNIEVNMTCDAPLIGEHSDEILRELGYSDSDIEALIESGIVTMNKEACEIC”, the “soluble on expression in E. coli” value is reported as “not soluble”. In the case of “MGSDKIHHHHHHMKVTFGQQTTKVKQLADLLSQEISMGKYKSDCTLPSINKLSREYQVSRDTVFKAFIDLKDRGIIDSTPGKGYYVTNKLTNILLLLDEYSPFKYSLYNSFIKKLSINYKVDLLFHQYNERLFNTILRESIGRYNKYIVMNFDNEKLSPHLYKIDSSKLLLLDFGKFDKKDYSYVCQDFDDSFYHALAALKEHLRKYQRLVLLFPEDIKHPRSSCQYFNCFCQDYHIDSAIVENTDRIQVRKGEVYIAIRQIEVVNIIKQSRTTGLKCGEDFGLIAYNDTPAYEVIDQGITVLSINWEELGRKAAEFVLTGQEIRTYLPTEVHLRNSI”, the “soluble on expression in E. coli” value is reported as “not soluble”. With “MGSDKIHHHHHHMKVWPVKHSPLLRQPERFIARSELQALIRNVTQNLVNIKDESGQFLLRLDDGRVIDTKGWAGWEWTHGVGLYGIYQYYQQTGDIEMRDIIDRWFADRFAEGATTKNVNTMAPFLTLAYRFEETGRMAYLPWLESWAEWAMHEMPRTEQGGMQHMTLAEENHQQMWDDTLMMTVLPLAKIGKLLNRPQYVEEATYQFLLHVQNLMDRETGLWFHGWNYEGRHNFARARWARGNSWLTMVIPDFLELVDLPEGNAVRRYLITVLDAQIAALAECQDDSGLWHTLLDDPHSYLEASATAGFAYGILKAVRKRYVGQHYAGVAEKAIRGIVQNISPQGELLQTSFGTGMGSDLDFYRQIPLTSMPYGQAMAILCLTEYLRKYF” the “soluble on expression in E. coli” value was “not soluble”. For “MGSDKIHHHHHHMLAENLKSLYLDEWNRYVGHEFVRRMEHGDLPLENFKFYLVQDSLYVEEMLRAVMRSTELMPNDMAIRILSSVVLGRDKGMETHAFLEKELGVEKSSRMTMTTYSYTRHLRYSSTIGWPQFLAAWIPCMWGYSEIGKTVLNSPNRYYRTWAEFYASKEYADRVSVILEAMDRFNGDITEIKDYFLISLKFEQMFWQAAFDMEKPI”, the “soluble on expression in E. coli” value was “not soluble”. In the case of “MGSDKIHHHHHHMLFRASRSDMSNLTNCITNESVAVTADKKPVIGRIHSFESCGTVDGPGIRFITFFQGCLMRCLYCHNRDTWDTHGGKEITVEDLMKEVVTYRHFMNASGGGVTASGGEAILQAEFVRDWFRACKKEGIHTCLDTNGFVRRYDPVIDELLDVTDLVMLDLKQMNDEIHQNLVGVSNHRTLEFAQYLSKKNVKVWIRYVVVPGWSDDDDSAHRLGEFTRDMGNVEKIELLPYHELGKHKWVAMGEEYKLDGVKPPKKETMERVKGILEQYGHKVMY”, the “soluble on expression in E. coli” value is reported as “not soluble”. With “MGSDKIHHHHHHMLGKGVVDYTREGSILSAEQRRFYEKNGYLLIRNCVPQYELNRFRQRFQDICEKKVKAPENMTVMKDISIAKSEFKDGEKAITKIQDFADDPVLFEYCKYPGVVDVVKDLIGNPKSNLMAMHTMLINKPPDNGKLTSRHPMHQDLQYFPFRPADFICCAWTAMEKITRANGCLVVVPGTHKGVLLPHEYPKWEGGVNKAYHGIQDYDTSTPRIHVEMEPGDTVFFHPILIHGSGANRTEGFRKAISCHYANDDLCRYVNVEGTTQETLAEEIIEIAKKRLTRYGLDPNTVTLDFADIWRVRAREVNGRRSNL” the “soluble on expression in E. coli” value was “not soluble”. In the case of “MGSDKIHHHHHHMLGQRIKSLRKAKKLTQSDVADGIMTKSMLSMIENEKATPSLPALQSIAHRLHVSIDALLIDPRAVEMKQMIEKINSTASGYYAEGQIATMLEPYLEPAINSYWQGQIYYEYGSALRFSDTEKGLHYFDLAEDVFQQLGLRDEQIKVQISKVYFLFFLRRYEEAYRKIDGMMIFQDVPLAHETFLDYQMLQAIRVSVINDNWSQSIVFLREGIRYMREKGVYSDVSNYHRLLALFLSLEEDYEAAEFELEKLRHFFLFTEATALDQILVDLTKGSIAVHREDYAGIREARERLIEVEIEACLHYIGYFEVYLCLWNDSKEELTFDLPSAVSKIWRNAHLWRAGGEYDHAMMLYALAFAMQAGVGLDRQAEVEELTTQLSPGHFKQKIEQTLARLT”, the “soluble on expression in E. coli” value is reported as “not soluble”. In the case of “MGSDKIHHHHHHMLKKVSRLDYFTLQVFIGLVELKSGSAVAERLRTTQSKVSRCLTCLREVLEDELFIRQQYGFEPNQVAVTIYPMVKTILEQYDKIVAATIDKGAEPYQLSVATYEQWSLMAMNCVHNTCHCIEGGVSINIQPWTDKIHQRLCQGKVDCSISTEPINHPMVNNFKLGDITHFFIVARRGHPILSSDAPLTQMFNYHIALVNTHLQEQEPHPIEVYAKARHIEIRVALKSPSLRMVVDHVSHSEDIALLSSAMSMAYFENRDDVDYLDISKIWLQTTELETQSYYLHCHKGIKPELTHCLRRVLTEKLHEMQAHCDQVAQENTRDLPTL”, the “soluble on expression in E. coli” value is reported as “not soluble”. In the case of “MGSDKIHHHHHHMLKSLLLTPINLAVKPFPAAKARLDAAKIVLKRWVKLRHFISDLLHAKSFMFWSAQDTSYAKLSSELIFQYHKLEKGLCMAGPRRFFGRDPVIATCRLVKRWSGAGLPSNDPVFLGAIETLRAYRDRLAVTPPPPEHATQIWSLLNECLSLAPPTPSLTTPRPYQPSAGTAATFDLLCAQRRSVRAYTTDVVPISLIHEAIATAQLSPSACNRQPWRLHIYRDPQRTKHLLELQNGNAGFGHQLTTLLVVCADSRTFFDATERNEPYVDAGLFVMSLLLALQSRGLASCCLNWCVSPDTDQKGHDRGDIPSNEKIIMYLAVGYADAQAMVPRSPRRNLETVVTLHEQ”, the “soluble on expression in E. coli” value is reported as “not soluble”. With “MGSDKIHHHHHHMLLVFASCGVNKSTEDSKKTNETKVEQIATLSAGTPVQSLDPATAVDQTSVTLLANVMEGLYRLDEKNQPQPAIAAGQPKISNGGKTYTIVIRDGAKWADGTDITADDFVTAWQRVLDPKTASPNVELFAAIKNAKEISIGKQQKETLGVKSKGNKTIEIELEEPTPYFTDLLALTAYFPVQQNAVKEYGKEYGTTKENIVTNGAFTLTDLNGVGISDKWTIAKNPKYWDKKHVAMEKIKFQVVKDINTGINLYNDGQLDDAPVAGEYSKQLENNKDFIRELSATTMFLEVNQRNKKSITSNKHARQAINFAIDREAISNKILTNGSIPAKGVVPSKLVYNPKTGKDFTNSSLVFLDKSKAKDSWEKAKKELKGTDLSIDIMVNEEDLSKKLGEYLQNELQDTLDGLKVSVTAVPATLQTERLNSGNFMIALSGWQADFADPVSFLANFESKSSLNHGGYANEEYDKLLKNNSSKRLQELKDAEKLILEDAGVIPLLQIGNAKLRNQKISEMKVHSIGAKYDYKTMEIK” the “soluble on expression in E. coli” value was “not soluble”. In the case of “MGSDKIHHHHHHMLLYIHGFNSSPFSDKAIMTAQYMAQHHPSVLFHQPQLPNTPKAAMALLLEYVEAALKDDEPLTYIGSSLGGYFASYLAEHYGGRAVLVNPAVKPFELFDEFMGPQFNPYTGENYQVLPEHKMEVAEFNTPVIRNPDRFLVLLQSGDEVLDYREALSKYHHCQLRIEAAGDHSFVGYEHYLQTISQFLHLP”, the “soluble on expression in E. coli” value is reported as “not soluble”. With “MGSDKIHHHHHHMLNEIITIYAITDDLLKAIGHDDDIRRDMIDAEIITTALVAAMFFNGNHSKACAYMKDHKLIPNMLEKSRFNLRLHNLSMLLNDLFHQIGMIIKEISDSTEYLLDSFPVTICDNIRIFQVHLIQSEEYRGYIASKKRYFYGVRVQLISTKSGIPVEFAFLPGSANDVRGLNALPFNLPPGSEVYADAAYTDYTVEDDMAQSSQISLKVMRKKNSKRQDQPWNQYVKQYTRHYIETVFSCITCIFPKSIHAVTYEGFLLKLQAFIFAFTLKSAFM” the “soluble on expression in E. coli” value was “not soluble”. With “MGSDKIHHHHHHMLNIVVVAHPDDEILGFGATGAKLAAKGEVVQPIILCGSVDARTLRPTDEELHSDMLKANSLVGFSKPVLGDFPNISMNTVPHVELVQFIEEQIKKFRPNRIFTHHPNDLNNDHTQVSNACLAASRLFQRRNDLPALEALYFMEILSSTDWAFPAVGDGFKPTTFVEITCELEKKLAALHHYRNVMRPFPHPRSDEVVTGLAAYRGGQAGLKYAEAFQLVFKQGV” the “soluble on expression in E. coli” value was “not soluble”.
